Source: patent publication US20150299708, “CD133 APTAMERS FOR DETECTION OF CANCER STEM CELLS” (Deakin University, published 2015)

Columns and labels:
[1] = test system: CD133-negative cell surface (HEK293T or T98G; no CD133) (Homo sapiens); assay: flow; settings: 2'-F pyrimidines, 3'-inverted dT, 37 C
[2] = target: T1, CD133 (prominin-1) (Homo sapiens, UniProt O43490 O43490:20-865); assay: flow; Hep3B cells; 37 C 30 min, DPBS + MgCl2; settings: tags: endogenous CD133 on CD133-positive HT-29 or Hep3B cells (ATCC); label: 5'-DY647
T1 sequence: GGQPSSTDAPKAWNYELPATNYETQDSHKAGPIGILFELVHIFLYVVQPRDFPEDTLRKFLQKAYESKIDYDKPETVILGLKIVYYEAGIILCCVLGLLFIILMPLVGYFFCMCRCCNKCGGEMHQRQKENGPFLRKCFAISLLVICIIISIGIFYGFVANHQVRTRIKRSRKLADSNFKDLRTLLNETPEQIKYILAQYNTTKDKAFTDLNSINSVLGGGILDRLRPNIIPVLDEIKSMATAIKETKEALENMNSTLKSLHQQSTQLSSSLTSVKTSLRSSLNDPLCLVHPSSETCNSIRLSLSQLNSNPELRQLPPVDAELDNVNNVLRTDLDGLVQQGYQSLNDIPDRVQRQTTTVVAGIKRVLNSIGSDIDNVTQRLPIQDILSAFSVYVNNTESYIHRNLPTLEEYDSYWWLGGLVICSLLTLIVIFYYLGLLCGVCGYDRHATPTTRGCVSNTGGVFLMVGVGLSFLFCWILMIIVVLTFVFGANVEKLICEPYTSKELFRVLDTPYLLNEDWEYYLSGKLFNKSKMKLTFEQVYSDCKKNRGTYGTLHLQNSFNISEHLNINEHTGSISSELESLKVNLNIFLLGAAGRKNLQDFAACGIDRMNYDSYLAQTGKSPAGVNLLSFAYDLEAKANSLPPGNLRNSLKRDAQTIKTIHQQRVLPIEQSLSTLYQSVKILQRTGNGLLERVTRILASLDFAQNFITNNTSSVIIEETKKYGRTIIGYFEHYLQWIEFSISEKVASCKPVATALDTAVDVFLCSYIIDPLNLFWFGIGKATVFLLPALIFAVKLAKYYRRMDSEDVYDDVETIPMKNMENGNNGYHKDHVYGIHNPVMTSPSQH
Text: (§1) CCCTCCTACATAGGGAGGAACGAGTTACTATAG -3′, and antisense oligonucleotide, 5′-CTATAGTAACTCGTTCCTCCCTATGTAGGAGGGTGGGTTGAGCGTTTATTCTTGTCTC -3′; CD133-1-2 (2nd truncation) was derived from a sense oligonucleotide: 5′-TAATACGACTCACTATAGCTCAACCCACCCTCCTACATAGGGAGGAACGAGT-3′and an antisense oligonucleotide, 5′-ACTCGTTCCTCCCTATGTAGGAGGGTGGGTTGAGC -3′; CD133-1-2-1 (3rd Truncation) was derived from a sense oligonucleotide, 5′-TAATACGACTCACTATACCACCCTCCTACATAGGGTGG-3′ and an antisense oligonucleotide, 5′-CCACCCTATGTAGGAGGGTGG-3′; and CD133-1-2-2 (4th Truncation) was derived from a sense oligonucleotide, TAATACGACTCACTATACCCTCCTACATAGGG-3′ and an antisense oligonucleotide, 5′-CCC TAT GTA GGA GGG-3′. CD133-2-1 (1st Truncation) was derived from a sense oligonucleotide 5′-TAATACGACTCACTATACAGAACGTATACTATTCTG-3′ and an antisense oligonucleotide, 5′-CAG AAT AGT ATA CGT TCT G-3′ (T7 RNA promoter sequence is underlined). […] The binding affinities of these two aptamers and a negative control aptamer was determined using CD133 positive (HT-29 and Hep3B) and CD133 negative cell lines (T98G and HEK293T). […]

[3] = target: T1, CD133 (prominin-1); assay: flow; HT-29 cells; 37 C 30 min, DPBS + MgCl2, tRNA, salmon sperm DNA; settings: tags: endogenous CD133 on CD133-positive HT-29 or Hep3B cells (ATCC); label: 5'-DY647
Text: as §1

[4] = target: T1, CD133 (prominin-1); assay: flow; HT-29 cells; 37 C 30 min, DPBS + MgCl2; settings: tags: endogenous CD133 on CD133-positive HT-29 or Hep3B cells (ATCC); label: 5'-DY647
Text: as §1

CAGAACGUAUACUAUUCUG [CD133-2-1]
Kd ([1]; CD133-negative HEK293T cells): 1740 µM
Kd ([1]; CD133-negative T98G cells): 4.76 µM

CCCUCCUACAUAGGG [CD133-1-2-2]
Kd ([1]; CD133-negative HEK293T cells): 120 µM
Kd ([1]; CD133-negative T98G cells): 275 µM

CCCUCCUACAUAGGG (ssRNA, 2'-F pyrimidines; 3'-inverted dT) [CD133-1-2-2]
Kd [2]: 0.032 µM
Kd [3]: 0.082 µM

CAGAACGUAUACUAUUCUG (ssRNA, 2'-F pyrimidines; 3'-inverted dT) [CD133-2-1]
Kd [2]: 0.052 µM
Kd [4]: 0.145 µM
